Like-named read-outs stand apart in the source and are kept apart here.
T1: his-tagged human CDH6 extracellular region protein (hCDH6 ECD-his) (human, UniProt P55285 19-615)
T1 construct: also called Human CDH6-his; hCDH6-his; not shown: his tag
T1 sequence: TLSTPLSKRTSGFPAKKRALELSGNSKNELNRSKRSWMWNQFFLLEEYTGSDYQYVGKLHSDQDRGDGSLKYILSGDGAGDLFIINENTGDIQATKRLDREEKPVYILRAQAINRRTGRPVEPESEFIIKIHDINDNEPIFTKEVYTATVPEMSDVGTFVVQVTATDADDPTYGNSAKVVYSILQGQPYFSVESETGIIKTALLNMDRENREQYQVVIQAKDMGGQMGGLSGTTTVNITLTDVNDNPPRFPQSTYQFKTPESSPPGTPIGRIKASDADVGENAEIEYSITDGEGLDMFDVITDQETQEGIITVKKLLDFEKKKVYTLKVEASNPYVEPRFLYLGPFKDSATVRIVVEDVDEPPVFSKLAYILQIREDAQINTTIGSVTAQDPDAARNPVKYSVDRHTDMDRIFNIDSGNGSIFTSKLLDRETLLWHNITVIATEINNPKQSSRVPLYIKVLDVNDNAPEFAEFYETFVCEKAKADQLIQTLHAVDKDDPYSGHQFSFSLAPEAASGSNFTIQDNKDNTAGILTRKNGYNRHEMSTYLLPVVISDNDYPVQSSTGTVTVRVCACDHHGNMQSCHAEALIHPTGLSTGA

T2: human CDH6 on tumor cells (OVCAR3 cells, PA-1 cells) (human, UniProt P55285 54-790)
T2 sequence: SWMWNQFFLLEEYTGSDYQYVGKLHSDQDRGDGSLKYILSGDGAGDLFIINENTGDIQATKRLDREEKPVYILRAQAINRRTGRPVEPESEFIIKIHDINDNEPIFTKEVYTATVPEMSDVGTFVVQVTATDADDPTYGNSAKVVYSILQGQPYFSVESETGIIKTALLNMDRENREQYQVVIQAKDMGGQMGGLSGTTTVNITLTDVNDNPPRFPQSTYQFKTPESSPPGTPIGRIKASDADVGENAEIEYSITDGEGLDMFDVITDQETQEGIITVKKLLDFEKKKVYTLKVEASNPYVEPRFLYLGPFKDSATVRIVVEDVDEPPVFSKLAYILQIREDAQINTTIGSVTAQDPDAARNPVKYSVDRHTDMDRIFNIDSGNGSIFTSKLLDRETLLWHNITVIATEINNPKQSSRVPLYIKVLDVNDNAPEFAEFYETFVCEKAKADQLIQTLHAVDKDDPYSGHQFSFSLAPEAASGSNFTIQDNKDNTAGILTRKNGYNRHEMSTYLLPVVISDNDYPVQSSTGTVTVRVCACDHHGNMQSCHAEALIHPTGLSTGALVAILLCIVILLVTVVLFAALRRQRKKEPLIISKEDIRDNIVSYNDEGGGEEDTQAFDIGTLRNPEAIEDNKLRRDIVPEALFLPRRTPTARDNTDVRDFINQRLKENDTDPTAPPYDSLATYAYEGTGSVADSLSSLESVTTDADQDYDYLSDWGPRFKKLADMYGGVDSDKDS


Assays:
[1] = target: T1, his-tagged human CDH6 extracellular …; experiment: ELISA, coated antigen
Method: Human CDH6 protein (hCDH6 ECD-his, conventionally synthesized), monkey CDH6 protein (cynoCDH6 ECD-his, conventionally synthesized; the cynoCDH6 ECD sequence was derived from Uniprot #A0A2K5TW62 (19-615)), and murine CDH6 protein (mCDH6 ECD-his, conventionally synthesized; the mCDH6 ECD sequence was derived from Uniprot #P97326 (19-615)) were diluted with PBS to a final concentration of 1 μg/mL, and added to a 96-well ELISA plate at 100 μL/well. The plate was incubated at 4° C. overnight. The next day, the plate was washed 3 times with a plate washing solution (PBS+0.01% (v/v) Tween 20), and a blocking buffer (PBS+0.01% (v/v) Tween 20+2% (w/w) BSA) was added for blocking at room temperature for 2 h. The blocking buffer was discarded, and the plate was washed 3 times. The chimeric antibodies were diluted with 1% BSA+PBS (purchased from Cytiva, Cat. No. SH30264.01) and added to the 96-well plate at 50 μL/well. After incubation at 37° C. for 2 h, the plate was washed 3 times with a plate washing solution. […] The plate was incubated at 37° C. for 1 h and then washed 5 times with a plate washing solution. A TMB substrate (purchased from Seracare, Cat. No. 5120-0077) was added at 50 μL/well and incubated at room temperature for 10 min, then a stop solution (1.0 N HCl) was added at 50 μL/well. OD450 nm values were read using a microplate reader (Biotek). Analysis was performed by the GraphPad Prism software, data were fitted, and EC50 values were calculated. The chimeric antibodies tested all had strong binding to the human CDH6 protein, the monkey CDH6 protein, and the murine CDH6 protein.
(§1) According to the above sequences, heavy chain (HC) and light chain (LC) plasmids were constructed (the nucleic acid sequences encoding the VH and VL of the antibodies were recombined into an expression vector carrying a signal peptide (SEQ ID NO: 132, […]) and a heavy chain constant region/light chain constant region sequence to obtain recombinant plasmids expressing VH—CH1-Fc/VL-CL).

[2] = target: T2, human CDH6 on tumor cells (OVCAR3 …); experiment: FACS, OVCAR3 cells
Method: (§2) OVCAR3 cells with high expression of CDH6 and PA-1 cells with moderate expression of CDH6 were used to detect the binding activity of the antibodies to the cells. […] The cells were washed once with PBS, counted, resuspended to 2×10⁶ cells/mL in an FACS buffer (PBS+2% FBS), and then added to a 96-well plate at 50 μL/well. The chimeric antibodies were diluted with FACS buffer (PBS+2% FBS) and added to the 96-well plate at 50 μL/well, and the plate was incubated at 4° C. for 1 h. […] The dilution was added to the 96-well plate at 50 μL/well, and the plate was incubated at 4° C. for 1 h. After the plates were centrifuged and washed 2 times with PBS, the cells were resuspended in an FACS buffer. The mean fluorescence intensity (MFI) was measured using FACS Canton II (BD). Analysis was performed by the GraphPad Prism software, data were fitted, and EC50 values were calculated. The chimeric antibodies tested had strong binding to both OVCAR3 cells and PA-1 cells.
as §1, with “VH—CH1-Fc/VL-CL). According to the expression and purification methods in Example 2, the hCDH6-6 humanized antibodies were obtained, and the binding activity of the humanized antibodies was detected by ELISA and FACS (see 2.2 and 2.3 for the method).” for “VH—CH1-Fc/VL-CL).”

[3] = target: T1, his-tagged human CDH6 extracellular …; experiment: SPR Biacore, antibody captured on Protein A
Method: (§3) The affinity of the antibody for the antigen was determined by a multi-cycle kinetic method using a BIAcore 8K instrument. In each cycle, the antibody to be tested was captured using a Protein A chip (purchased from GE, Cat. No. 29-1275-56), and then the antigen human CDH6 protein (hCDH6-his, conventionally synthesized) was injected. The association and dissociation processes of the antibody with the antigen protein were recorded, and finally, the chip was regenerated using Glycine pH 1.5, wherein the mobile phase was HBS-EP+ (10 mM HEPES, 150 mM NaCl, 3 mM EDTA, 0.05% surfactant P20, and 1 mM Ca), the flow rate was 30 μL/min, the association time was 240 s, the dissociation time was 300 s, the regeneration time was 30 s, the detection temperature was 25° C., and the antigen concentration was 31.25-1000 nM. The data were analyzed using Biacore 8K analysis software (version No. 2.0) based on the 1:1 binding model to fit the antibody-antigen binding kinetic parameters, including the association rate constant ka, the dissociation rate constant kd, and the equilibrium dissociation constant KD. The affinity values of the control antibody DS-H01L02 were undetectable. Antibodies not shown in the table had undetectable affinity values.
Four hCDH6-6 humanized antibodies with fewer back mutations were selected, and the affinity for human CDH6 protein was further confirmed using Biacore.

[4] = target: T1, his-tagged human CDH6 extracellular …; experiment: SPR Biacore, antibody captured on Protein A; remark: listed apart in the source
Method: as §3
Four hCDH6-1 humanized antibodies with fewer back mutations were selected, and the affinity for human CDH6 protein was further confirmed using Biacore.

[5] = target: T2, human CDH6 on tumor cells (OVCAR3 …); experiment: FACS, OVCAR3 cells; remark: listed apart in the source
Method: as §2
as §1, with “VH-CH1-Fc/VL-CL). According to the expression and purification methods in Example 2, the hCDH6-1 humanized antibodies were obtained, and the binding activity of the humanized antibodies was detected by ELISA and FACS (see 2.2 and 2.3 for the method).” for “VH—CH1-Fc/VL-CL).”

[6] = target: T1, his-tagged human CDH6 extracellular …; experiment: ELISA, coated antigen; remark: listed apart in the source

Row | Binder | EC50 [1] | Max OD450 [1] | EC50 [2] | Max MFI [2] | Kd [3] | koff [3] | kon [3] | Kd [4] | koff [4] | kon [4] | EC50 [5] | Max MFI [5] | EC50 [6] | Max OD450 [6]
1 | hCDH6-6-H1L2 (antibody, V domains shown, Humanized) VH: EVQLVQSGAEVKKPGASVKVSCKASGYTFTDYYMAWVRQAPGQGLEWMGYIFPNSGGTDYSQKFKGRVTMTVDKSTSTVYMELSSLRSEDTAVYYCARELGADYGDYYAMDHWGQGTTVTVSS VL: DIQMTQSPSSLSASVGDRVTITCRASENIDSYLAWYQQKPGKSPKLLVYSATLLADGVPSRFSGSGSGTDYTLTISSLQPEDFATYYCQHYYRTPPTFGQGTKLEIK | 28 pM | 2.07 OD450 | 620 pM | 14300 MFI | 138000 pM | 0.00607 s⁻¹ | 44100 M⁻¹ s⁻¹ | – | – | – | – | – | – | –
2 | hCDH6-1-H1L1 (antibody, V domains shown, Humanized) VH: EVQLVQSGAEVKKPGSSVKVSCKASGYTFSNYWMHWVRQAPGQGLEWMGDIDPSHSETHYTQKFKDRVTITVDKSTSTAYMELSSLRSEDTAVYYCARGDLGRFDYWGQGTTVTVSS VL: DIVMTQSPDSLAVSLGERATINCRASESVSIHGTHLMHWYQQKPGQPPKLLIYAASNLESGVPDRFSGSGSETDFTLTISSLQAEDVAVYYCQQSFEDPWTFGGGTKVEIK | – | – | – | – | – | – | – | 21700 pM | 0.00456 s⁻¹ | 210000 M⁻¹ s⁻¹ | 166 pM | 14400 MFI | 25 pM | 2.8 OD450
3 | hCDH6-1-H1L2 (antibody, V domains shown, Humanized) VH: EVQLVQSGAEVKKPGSSVKVSCKASGYTFSNYWMHWVRQAPGQGLEWMGDIDPSHSETHYTQKFKDRVTITVDKSTSTAYMELSSLRSEDTAVYYCARGDLGRFDYWGQGTTVTVSS VL: DIVMTQSPDSLAVSLGERATINCRASESVSIHGTHLMHWYQQKSGQPPKLLIYAASNLESGVPDRFSGSGSETDFTLTISSLQAEDVAVYYCQQSFEDPWTFGGGTKVEIK | – | – | – | – | – | – | – | 21500 pM | 0.00422 s⁻¹ | 196000 M⁻¹ s⁻¹ | 177 pM | 14500 MFI | 27 pM | 2.75 OD450

Results, then the binder that gave them:

Row | EC50 [1] | Max OD450 [1] | EC50 [2] | Max MFI [2] | Kd [3] | koff [3] | kon [3] | Kd [4] | koff [4] | kon [4] | EC50 [5] | Max MFI [5] | EC50 [6] | Max OD450 [6] | Binder
4 | 37 pM | 2.08 OD450 | 620 pM | 13700 MFI | 192000 pM | 0.00743 s⁻¹ | 38600 M⁻¹ s⁻¹ | – | – | – | – | – | – | – | hCDH6-6-H1L1 (antibody, V domains shown, Humanized) VH: EVQLVQSGAEVKKPGASVKVSCKASGYTFTDYYMAWVRQAPGQGLEWMGYIFPNSGGTDYSQKFKGRVTMTVDKSTSTVYMELSSLRSEDTAVYYCARELGADYGDYYAMDHWGQGTTVTVSS VL: DIQMTQSPSSLSASVGDRVTITCRASENIDSYLAWYQQKPGKSPKLLLYSATLLADGVPSRFSGSGSGTDYTLTISSLQPEDFATYYCQHYYRTPPTFGQGTKLEIK
5 | 32 pM | 2.01 OD450 | 610 pM | 14000 MFI | 133000 pM | 0.00616 s⁻¹ | 46200 M⁻¹ s⁻¹ | – | – | – | – | – | – | – | hCDH6-6-H2L1 (antibody, V domains shown, Humanized) VH: EVQLVQSGAEVKKPGASVKVSCKASGYTFTDYYMAWVRQAPGQGLEWMGYIFPNSGGTDYSQKFKGRVTLTVDKSTSTVYMELSSLRSEDTAVYYCARELGADYGDYYAMDHWGQGTTVTVSS VL: DIQMTQSPSSLSASVGDRVTITCRASENIDSYLAWYQQKPGKSPKLLLYSATLLADGVPSRFSGSGSGTDYTLTISSLQPEDFATYYCQHYYRTPPTFGQGTKLEIK
6 | – | – | – | – | – | – | – | 18900 pM | 0.00824 s⁻¹ | 435000 M⁻¹ s⁻¹ | 175 pM | 14500 MFI | 29 pM | 2.67 OD450 | hCDH6-1-H1L3 (antibody, V domains shown, Humanized) VH: EVQLVQSGAEVKKPGSSVKVSCKASGYTFSNYWMHWVRQAPGQGLEWMGDIDPSHSETHYTQKFKDRVTITVDKSTSTAYMELSSLRSEDTAVYYCARGDLGRFDYWGQGTTVTVSS VL: DIQMTQSPSSLSASVGDRVTITCRASESVSIHGTHLMHWYQQKPGKPPKLLIYAASNLESGVPSRFSGSGSETDFTFTISSLQPEDIATYYCQQSFEDPWTFGGGTKVEIK

— patent US20260234242A1 (HAINAN SIMCERE ZAIMING PHARMACEUTICAL, published 2026)
